Experimental data reported in article PMC8863855.

Molecular target: CD19-Fc (CD19-IgG1 Fc fusion protein) (UniProt P15391)
Experiment: flow cytometry on cells
Details: for response (% Normalized Binding): n=3 independent donor replicates, untransduced background subtracted, normalized for % CAR-expressing T-cells, read off a plot; for response (% of cells in CD19-Fc binding gate): one representative example, untransduced 2%, not normalized, CD19-Fc concentration not stated for this panel, parent: 46
[1] = CD19-Fc 1.0µg/mL, parent: est. 73
[2] = CD19-Fc 0.5µg/mL, parent: est. 65

response (% Normalized Binding) [1]	response (% of cells in CD19-Fc binding gate) (myc+ 49% (parent F-2 myc+ 43%))	response (% of cells in CD19-Fc binding gate) (myc+ 47% (parent F-2 myc+ 43%))	response (% Normalized Binding) [2]	response (% of cells in CD19-Fc binding gate) (myc+ 43% (parent F-2 myc+ 43%))	response (% of cells in CD19-Fc binding gate) (myc+ 78% (parent F-2 myc+ 43%))	response (% of cells in CD19-Fc binding gate) (myc+ 46% (parent F-2 myc+ 43%))	Substance
4.4	2	–	–	–	–	–	F-2 second generation (CD28+CD3ζ) CAR with the unmodified FMC63 scFv G01: VH CDR3 …>… (G>A at CDR3 position 5)
5.6	–	2	–	–	–	–	F-2 second generation (CD28+CD3ζ) CAR with the unmodified FMC63 scFv G02: VH CDR3 …>… (G>A at CDR3 position 6)
8.6	–	–	1.2	4	–	–	F-2 second generation (CD28+CD3ζ) CAR with the unmodified FMC63 scFv Y03: VH CDR3 …>… (Y>A at CDR3 position 4)
65	–	–	41	–	28	–	F-2 second generation (CD28+CD3ζ) CAR with the unmodified FMC63 scFv Y04: VH CDR3 …>… (Y>A at CDR3 position 8)
100	–	–	70	–	–	64	F-2 second generation (CD28+CD3ζ) CAR with the unmodified FMC63 scFv Y05: VH CDR3 …>… (Y>A at CDR3 position 12)
